assay: soluble on expression in E. coli; label from the status in PepcDB or PDB records

**Q.** For “MSLTTDTTSQTVLRSRKDVPSSDCWDTKSLYASREAWKKDLENLCGKEAPFWPHLNEKQFHIEQPSSLYKLLTEVFSIERTLEKLYVYAHLTHDEDISNQEATADLKSITYLLTSFSEEISWIQPALIALPQKISEELLTSPELQTYHFYLKKIFRLAPHTGTSREEKILASSSPALEVAYKTFSSLTDSEIPFGEAVDSEGKSHPLSHALSSLYMQSPDRELRKSAYQKQCQRYHGYRLSLANLLNGKIQAHLFNAKAHNYKSCLEAALFQNNISTSVVTTLIETVKQHTHLMTKYFQLKQKALGLPDFHFYDVYAPIAASEFARHYSYEEAVSLICDSLTPLGDNYVEALRKGLTSEGWVDKYENQNKRSGAYSSGCYDSKPYILMNYTGTLYDVSVVAHEGGHSMHSFLSHKHQQYHEAQYPIFLAEIASTLNETLLMEFLLKNAPSKEEKIAILSRSLDTIFATLFRQTLFADFELEAHSAAEQGIPLTEEFFSQSYKKLQHIFYGDCVTFDELSSIEWARIPHFYYNFYVYQYATGIIASLCFSEKILSKEAGAQEAYLTFLQSGGSDFPIEILKKSGLDMTSSAPMLKAFSYIERKLDELTNLLEGHHHHHH”, which “soluble on expression in E. coli” value is on record?
**A.** soluble

**Q.** For “MEKDDATASFSPSFSTYSGDRLVEIAERVCYKEKSDAEFEFSTAATSSSGDGGLVFPVFNKNLISGDVSPEKVIPLKDLFLRERNDQQPPQQTYSSSSDEEEEDDEFDSIPSEIYCPWTPARSTADMSPSGGCRKSKSTGSSSTSTWSTKRWRLRDFLKRSKSDGKQSLKFLNPTNRDDDDESSKSKKKVSVSVTVSAHEKFYLRNKAIKEEDKRKSYLPYKQDLVGLFSNIHRYGKTFPPF”, which “soluble on expression in E. coli” value is on record?
**A.** not soluble

**Q.** For “SHSSSRASFTTRGDIRRQVEGFSASGERNKDTVVDLSTFFAERGYSNNQAPTKYWEEKLVTIGNVVVPKWVPVKERNSSNKQKEGEDEVFIGFEAIYYPEQPPERQPITLYQEENKVEEEEQSRE”, which “soluble on expression in E. coli” value is on record?
**A.** soluble

**Q.** Which “soluble on expression in E. coli” value does the source give for “MGSDKIHHHHHHMTHPSVDQENLPQTASLPENIIEAAITWSIRLDYNDPTPETRQSFDQWLHADPLHRLAWQRVDSLNNLRNDCRSLPSRLAFDTLQEVDSRRQSRKLSRRNAMKLLSLAGITIATGWTVREHTPWQRLLADASTVTGEQRVLHLTDGTVVVLNTDSAVSFDLTEAQRLIVLQRGEMHITTGPDSEVSARIGRKRPFRVRTPFGELQALGTRFVVRLDEQHARVSVQEGAVELHPSAGGSSAIVQAGESRRLTGSSILPEADRYFEEDGWVSGVIAGKNIRLADLVAELSRYRPGYIVCDERVADLPISGIFHVKDTDKALQFLAQTQPVSVMYRTRFWVIVGPKSLYR” here?
**A.** not soluble

**Q.** Which “soluble on expression in E. coli” value does the source give for “MQDYTVHIVDDEEPVRKSLAFMLTMNGFAVKMHQSAEAFLAFAPDVRNGVLVTDLRMPDMSGVELLRNLGDLKINIPSIVITGHGDVPMAVEAMKAGAVDFIEKPFEDTVIIEAIERASEHLVALE” here?
**A.** soluble

**Q.** With “MGSDKIHHHHHHMIGHVPVGSSAPVVVQSMTNTDTADAAATVRQVYELWRAGSEIVRITVNSPEAAAQVGAIRRQLDDLGCNVPLVGDFHFNGHRLLAQYPDCAEALAKYRINPGNVGKGSKRDEQFSAMIKAAIDYNKPVRIGVNWGSLDQAKMARMMDENSKRAAPLAADALMREMLIQSALENAAAAEELGLPSDRIIISCKVSAVQDLIKVYRDLGSRCDYPLHLGLTEAGMGSKGIVASTAALSVLLQDGIGDTIRVSLTPEPGESRTKEVVVAQEILQTMGIRSFTPLVTACPGCGRTTSTFFQELAQKIQHYLRDQMPVWRSQYPGVENMSVAVMGCVVNGPGESKLANIGISLPGTGEVPVAPVYVDGEKTVTLKGERIADDFKVIVEEYVRVNYAEGGRLRQQGTGTGLKTIPLKAI” as the sequence, how does the “soluble on expression in E. coli” value read?
**A.** not soluble

**Q.** Which “soluble on expression in E. coli” value does the source give for “MGKRSGASYRSRRPKLACADWDKRMMQTQPFRLPRFTPFGVIEKGVELATGLSQLERYYQQRPTTRDGFEFMRYTLEALNVHYQVDRGRVEQIPAQGPVVIVANHPLGAIEGVILADLVGQVRKDVKVLANQLLKRLPEIEPLFIGVDVFNGAQASKTNARGIREAHRHLAEGGVLIVFPAGEVSTPQKETGQLSDIDWSQSVAKFIQRSQARCVPIYIHGRNSAWFYRAGKIHPLLRTAMLGRELLNKSASTISLCIGQPIPYAELKEFTKDEDVVNYLRLNTYLMSPHGQVESAKVSFTIPVIDPVPKAALIAELAQLDKQAKLLEQGEFTVYCVPSTHIPLMMQEIGRVREISFRAVGEGSGQACDVDAYDHHYWQLFVWNREQSELVGAYRMGLVDKIVAERGLQGLYSRSLFHYDHAFLATLENAIELGRSVVAEQYQRNLNSLLLLWKGIARFVELNPHYTHLFGPVSISNDYSPAARQLMAATLSIHHYDQHKAALVSPSTPLRAGTEVFWQKSLLSALASVSLLSKVVARMEQGNGLPVLLRQYLGMNGKLVCLNVDPAFNDALDGLIVVNLKQVPLKTLAKYMGKEAAQHYLCSVT” here?
**A.** not soluble

**Q.** For “GMSRSPFQTFVWRSEIFECQSTDIQRFYSLLAIETERLGLGSKILGQAGHHPLYLLQSPGQKAGLPNLLISAGFHGEESAGPWGLLHFLSQLDGELFKRVNLSVLPLVNPTGFAKGHRFNELGENPNRGFFIENGKAKPGADTSAEGRILLEHAHLLQVASRDGILTCHEDVLMTDTYVYTFEPSQAPGRFSHSLRDALGQYFPIAADGDVDNCPVRSGVIFNHFDTSFESFLVRSGARVGCCSETPGQQPLDQRILANAAAMNTFVNMLAPELS”, which “soluble on expression in E. coli” value is on record?
**A.** soluble

**Q.** For “MSLKVATFIEPGKMVITDTPKPVIEQETDAVIKIVRACVCGSDLWWYRGISKRESGSFAGHEAIGIVEEVGTKVTDVSKGDFVIVPFTHGCGQCPSCKAGFDGNCTNHQAAKNVGYQGQYLRYTNANWALVKIPGQPSDYDNETLNSLLTLSDVMATGYHAAATAEVKEGDTVVVMGDGAVGLCGVIAAKMLGANRIIAMSRHKDRQELALTFGATDIVEERGDEAVKRVLDLTNQAGADAVLECVGTEQSVDTATQIARPGAVIGRVGIPQNPDMNTNNLFWKNIGLRGGIASVTTFDKSVLLDAVLTHKINPGLVFTKSFVLDDIQKAYEAMDKRDAIKSLVIVDEGHHHHHH”, which “soluble on expression in E. coli” value is on record?
**A.** soluble

**Q.** With “MANEIPTKGILKSEALKQYIMETSAYPREHELLKELRKATVQKYGNLSEMEVPVDEGHFLSMLVKIMNAKNTIEIGVFTGYSLLTTALALPEDGRITAIDIDKEAYEVGLEFIKKAGVDHKINFIHSDGLKALDQLVNDKCEFDFAFADADKSSYVNFHERLLKLVKVGGIIAFDNTLWFGFVAEDEDGVPEHMREYRAALIEFNKKLALDPRVEVSQISIGDGITLCRRLV” as the sequence, how does the “soluble on expression in E. coli” value read?
**A.** soluble

**Q.** For “MGSSHHHHHHSSGLVPRGSHMKKRIGIVGAGTAGLHLGLFLRQHDVDVTVYTDRKPDEYSGLRLLNTVAHNAVTVQREVALDVNEWPSEEFGYFGHYYYVGGPQPMRFYGDLKAPSRAVDYRLYQPMLMRALEARGGKFCYDAVSAEDLEGLSEQYDLLVVCTGKYALGKVFEKQSENSPFEKPQRALCVGLFKGIKEAPIRAVTMSFSPGHGELIEIPTLSFNGMSTALVLENHIGSDLEVLAHTKYDDDPRAFLDLMLEKLGKHHPSVAERIDPAEFDLANSSLDILQGGVVPAFRDGHATLNNGKTIIGLGDIQATVDPVLGQGANMASYAAWILGEEILAHSVYDLRFSEHLERRRQDRVLCATRWTNFTLSALSALPPEFLAFLQILSQSREMADEFTDNFNYPERQWDRFSSPERIGQWCSQFA”, which “soluble on expression in E. coli” value is on record?
**A.** soluble

**Q.** Which “soluble on expression in E. coli” value does the source give for “QTLDIQRGATLFNRACIACHDTGGNIIQPGATLFTKDLERNGVDTEEEIYRQTYFGKGRMPGFGEKCTPRGQCTFGPRLQDEEIKLLAEFVKFQADQGWPTVSTD” here?
**A.** soluble

**Q.** With “SDVNECLTIPEACKGEMKCINHYGGYLCLPRSAAVINDLHGEGPPPPVPPAQHPNPCPPGYEPDDQDSCVD” as the sequence, how does the “soluble on expression in E. coli” value read?
**A.** soluble

**Q.** With “MDIKNWSVYNKLYVGGGISDDVQTNTSETYDKEKDCWTLDNGHLVPHNYIMYKCEPVKHRYPLEKTQYTNDFLKYLESFIGS” as the sequence, how does the “soluble on expression in E. coli” value read?
**A.** not soluble

Source: the DeepSol protein solubility set
